In paper PMC9321951, “Thiol redox switches regulate the oligomeric state of cyanobacterial Rre1, RpaA and RpaB response regulators” (Febs Letters, 2022):
“And” between values parts separate entries of the source, which are not always exact repeats. Identical values can stand only once.

Experiments:
[1] = target: Regulator of Photosynthesis and Photopigment-related gene expression A (RppA), full-length, MBP-tagged (Synechocystis sp. PCC 6803) (UniProt Q55933); assay: non-reducing urea-SDS/PAGE; 2.5 µM RppA with 2 mM diamide, 30 min, room temperature; non-reducing SDS-6 M urea-8% PAGE
[2] = target: Regulator of Photosynthesis and Photopigment-related gene expression A (RppA), full-length, MBP-tagged (Synechocystis sp. PCC 6803) (UniProt Q55933); assay: SEC; RppA oxidised with 2 mM diamide, desalted; 0.85 mg on Superdex S200 10/300GL Increase; 100 mM HEPES pH 8.0, 100 mM NaCl; approximate masses from a calibration curve
[3] = target: Regulator of Phycobilisome Association B (RpaB), full-length, MBP-tagged (Synechocystis sp. PCC 6803); assay: non-reducing urea-SDS/PAGE; 2.5 µM Rre1, RpaA or RpaB, air-exposed untreated or with 2 mM diamide or 2 mM H2O2, 30 min, room temperature; non-reducing SDS-6 M urea-8% PAGE; shows disulfide-linked oligomers
[4] = target: Regulator of Phycobilisome Association B (RpaB), full-length, MBP-tagged (Synechocystis sp. PCC 6803); assay: SEC; RpaB oxidised with 2 mM H2O2, desalted; 0.85 mg on Superdex S200 10/300GL Increase; 5% glycerol, 300 mM NaCl, 100 mM HEPES pH 8.0; approximate masses from a calibration curve
[5] = target: the molecule itself; assay: SEC; Rre1 or RpaA oxidised with 2 mM H2O2, desalted; 0.85 mg on Superdex S200 10/300GL Increase; 100 mM HEPES pH 8.0, 100 mM NaCl; approximate masses from a calibration curve

Regulator of Photosynthesis and Photopigment-related gene expression A (RppA), full-length, MBP-tagged (from UniProt Q55933 1-234) (natural protein)
stoichiometry N [1]: 3 | stoichiometry N [2]: 3

Regulator of Phycobilisome Association B (RpaB), full-length, MBP-tagged (natural protein)
stoichiometry N [3]: 2 | stoichiometry N [4]: 4 and 3

B1: Response Regulator 1 (Rre1), full-length, MBP-tagged (natural protein, Synechocystis sp. PCC 6803, UniProt P72781 1-231, looked up)
chain: MAEPISLLLVDDEPGVRESVQAFLEDSGDFKVDLAANATEAWDYLQHHLPALVISDIMMPQVDGYQFLQKLREDARFQSLPVVFLTARGMTGDRIQGYQTGCDAFLSKPFDPDELEAIVRNLLARQQASSDAGSESAKLQEIYQEIRALKEQIGQPSGIHTTPSPIKLDFTPREQSVLDLVSQGLMNKEIAAQLKTSVRNVEKYVSRLFTKTGTNSRTELVRFALQHGLTE
notes: Rre1 (response regulator 1), Synechocystis sp; Cloned KpnI/XhoI into pETG-41A; theoretical mass of the MBP-tagged monomer printed as 75 kDa
stoichiometry N [5]: 3 and 4
